No end group written: not given here.
Experiments:
HLA-A*0202 = HLA-A*0202 (Homo sapiens, UniProt P04439, D140Y/D185E/D98H/E176V/E277Q/G131W/G231S/I119L/I121R/I166T/I218V/L180W/L300P/L318F/N151K/N90K/P208A/P217A/Q67R/Q86G/Q94H/R138H/R169H/T345S); assay: purified HLA class I binding assay, A*0202
HLA-A*0206 = HLA-A*0206 (Homo sapiens, UniProt P04439, D140Y/D185E/D98H/E176V/E277Q/F33Y/G131W/G231S/I119V/I121R/I166T/I218V/L300P/L318F/N151K/N90K/P208A/P217A/Q86G/Q94H/R138H/R169H/T345S); assay: purified HLA class I binding assay, A*0206
HLA-A*6802 = HLA-A*6802 (Homo sapiens, UniProt P04439, A269V/D140Y/D185E/E176V/E277Q/E87N/F33Y/G231S/I121R/I166T/I218V/L180W/L300P/L318F/N151K/P208A/P217A/Q86R/R138H/R169H/S129P/T345S/V36M); assay: purified HLA class I binding assay, A*6802
HLA-A*0203 = HLA-A*0203 (Homo sapiens, UniProt P04439, A173T/D140Y/D185E/D98H/E277Q/G131W/G231S/I119V/I121R/I166T/I218V/L180W/L300P/L318F/N151K/N90K/P208A/P217A/Q86G/Q94H/R138H/R169H/T345S); assay: purified HLA class I binding assay, A*0203
HLA-A*0201 = HLA-A*0201 (Homo sapiens, UniProt P04439, D140Y/D185E/D98H/E176V/E277Q/G131W/G231S/I119V/I121R/I166T/I218V/L300P/L318F/N151K/N90K/P208A/P217A/Q86G/Q94H/R138H/R169H/T345S); assay: purified HLA class I binding assay, A*0201
HLA-A*0301 = target: T1, HLA-A*0301 (Homo sapiens, UniProt P04439); assay: purified HLA class I binding assay, A*0301; conditions: for A0301 (binding information): HIV A03 motif peptides, Table XVI; for A0301 (binding information) / A*0301 binding information: unit not given; for A*0301 binding information: Table IX
T1 construct: endogenous in cells; host or cells: GM3107

HLA-A*1101 = HLA-A*1101 (Homo sapiens, UniProt P04439, A114D/D185E/E176A/F33Y/L180Q/S129P/T187R); assay: purified HLA class I binding assay, A*1101
HLA-A*3101 = HLA-A*3101 (Homo sapiens, UniProt P04439, A270S/D185E/E176V/E277Q/F33T/G231S/G80R/H175R/I121M/I218V/I322F/K168Q/L300P/L318F/M331R/P217A/Q94H/R138Q/T323A/T345S/T97I/V358M); assay: purified HLA class I binding assay, A*3101; conditions: for A*3101 binding information: Table IX, unit not given
HLA-A*6801 = HLA-A*6801 (Homo sapiens, UniProt P04439, A269V/D185E/E176V/E277Q/E87N/F33Y/G231S/I121M/I166T/I218V/L180W/L300P/L318F/N151K/P208A/P217A/Q86R/R169H/T345S); assay: purified HLA class I binding assay, A*6801; conditions: for A*6801 binding information: Table IX, unit not given
HLA-A*2402 = HLA-A*2402 (Homo sapiens, UniProt P04439, D101N/D140Y/D185E/E176V/E190D/F33S/G103R/G107R/I119L/I121M/I306V/K335N/L105A/L180Q/L300P/N151K/N90K/Q86E/Q94H/R106L/R138H/R89G/T104I/T345S/V100E/W191G/Y123F); assay: purified HLA class I binding assay, A*2402
[1] = HIV A03 supermotif peptides, Table IX, unit not given
[2] = HIV A24 supermotif peptides, Table X, A*2401, unit not given
[3] = HIV A03 super motif peptides, binding value
[4] = Table IX, HIV A03 super motif peptides, binding value, unit not given
[5] = Table XVII, HIV A11 motif peptides, binding value A*1101, unit not given

## CC[C@H](C)[C@H](NC(=O)[C@H](C)N)C(=O)N[C@H](C(=O)N[C@@H](CCCNC(=N)N)C(=O)N[C@H](C(=O)N[C@@H](CC(C)C)C(=O)N[C@@H](CCC(N)=O)C(=O)N[C@@H](CCC(N)=O)C(=O)N[C@@H](CC(C)C)C(=O)O)[C@@H](C)CC)[C@@H](C)CC [Peptide 1261.11]
HLA-A*0202
  IC50: 22.6 nM
HLA-A*0206
  IC50: 38.5 nM
HLA-A*6802
  IC50: 548 nM

## CSCC[C@H](NC(=O)[C@H](C)NC(=O)[C@H](CCC(=O)O)NC(=O)[C@H](C)NC(=O)[C@H](CC(C)C)NC(=O)[C@@H](N)C(C)C)C(=O)N[C@@H](CO)C(=O)N[C@@H](CCC(N)=O)C(=O)N[C@H](C(=O)O)C(C)C [Peptide 1069.32]
HLA-A*0202
  IC50: 82.7 nM
HLA-A*0203
  IC50: 15.2 nM

## FLGAAGSTM [1211.05]
HLA-A*0201
  IC50: 73.5 nM
HLA-A*0202
  IC50: 3580 nM
HLA-A*0203
  IC50: 1.5 nM
HLA-A*0206
  IC50: 4110 nM
HLA-A*6802
  IC50: 66700 nM

## TVQCTIIGIK
HLA-A*0301
  A0301 (binding information): 0.0021
HLA-A*0301; HIV A03 supermotif peptides
  A*0301 binding information: 0.0021
HLA-A*1101; [1]
  A*1101 (binding information): 0.0460
HLA-A*3101; HIV A03 supermotif peptides
  A*3101 binding information: 0.0042
HLA-A*6801; HIV A03 supermotif peptides
  A*6801 binding information: 0.0190

## QARYLAVER
HLA-A*0301; HIV A03 supermotif peptides
  A*0301 binding information: 0.0009
HLA-A*1101; [1]
  A*1101 (binding information): 0.0003
HLA-A*3101; HIV A03 supermotif peptides
  A*3101 binding information: 0.0320
HLA-A*6801; HIV A03 supermotif peptides
  A*6801 binding information: 0.0007

## KMIGGIGGPI
HLA-A*2402; HIV A24 motif peptides, purified HLA-A24 molecule, unit not given
  A*2401 (binding information): 0.0001

## TLFCASDAK [1273.06]
HLA-A*3101
  IC50: 10600 nM
HLA-A*6801
  IC50: 191 nM

## GYELIIPDKW
HLA-A*2402; [2]
  A*2401 (binding information): 0.0001

## VWKEATITLF
HLA-A*2402; HIV A24 motif peptides, binding value for purified HLA-A24 molecule, A*2401, unit not given
  A*2401 (binding information): 0.2700

## IYQEPIKNL
HLA-A*2402; [2]
  A*2401 (binding information): 0.0520

## WMTNNPPIPV [25.0139]
HLA-A*0201
  IC50: 98 nM
HLA-A*0202
  IC50: 3070 nM
HLA-A*0203
  IC50: 16.9 nM
HLA-A*6802
  IC50: 2220 nM

## CC(C)C[C@H](NC(=O)[C@H](CCCCN)NC(=O)[C@H](Cc1ccccc1)NC(=O)[C@H](CS)NC(=O)[C@H](Cc1c[nH]c2ccccc12)NC(=O)CNC(=O)[C@H](Cc1ccccc1)NC(=O)[C@@H](NC(=O)[C@@H](N)CC(C)C)[C@@H](C)O)C(=O)O [Peptide 1261.04]
HLA-A*0203
  IC50: 4550 nM
HLA-A*0206
  IC50: 206 nM
HLA-A*6802
  IC50: 5.6 nM

## FTTPDKKIIQK
HLA-A*0301; [3]
  A*0301 binding information: 0.0002
HLA-A*1101; [4]
  A*1101 (binding information): 0.0150
HLA-A*1101; [5]
  A*1101 (binding information): 0.0150
HLA-A*3101; [3]
  A*3101 binding information: 0.0010
HLA-A*6801; [3]
  A*6801 binding information: 0.0273

## CC[C@H](C)[C@H](NC(=O)[C@H](CC(N)=O)NC(=O)[C@@H](NC(=O)[C@@H]1CCCN1C(=O)[C@@H](NC(=O)[C@@H]1CCCN1C(=O)CNC(=O)[C@@H](NC(=O)[C@@H](N)CC(C)C)C(C)C)[C@@H](C)O)C(C)C)C(=O)O [Peptide 1261.09]
HLA-A*0203
  IC50: 19.2 nM
HLA-A*0206
  IC50: 2850 nM
HLA-A*6802
  IC50: 67.8 nM

## ASCDKCQLK
HLA-A*0301; HIV POL-derived A03 motif peptides, binding value for purified HLA-A*0301, unit not given
  A0301 (HIV A03 Motif Peptides with Binding Information): 0.0027
HLA-A*0301; [3]
  A*0301 binding information: 0.0027
HLA-A*1101; [4]
  A*1101 (binding information): 0.0140
HLA-A*1101; [5]
  A*1101 (binding information): 0.0040
HLA-A*3101; [3]
  A*3101 binding information: 0.0020
HLA-A*6801; [3]
  A*6801 binding information: 0.0001

## CC[C@H](C)[C@H](NC(=O)[C@@H]1CCCN1C(=O)[C@@H]1CCCN1C(=O)[C@H](CC(N)=O)NC(=O)[C@H](CC(N)=O)NC(=O)[C@@H](NC(=O)[C@@H](N)CCSC)[C@@H](C)O)C(=O)N1CCC[C@H]1C(=O)N[C@H](C(=O)O)C(C)C [Peptide 1261.03]
HLA-A*0202
  IC50: 7170 nM
HLA-A*6802
  IC50: 12.1 nM

## TVQCTIIGIR
HLA-A*0301
  A0301 (binding information): 0.0008
HLA-A*0301; HIV A03 supermotif peptides
  A*0301 binding information: 0.0008
HLA-A*1101; [1]
  A*1101 (binding information): 0.0008
HLA-A*1101; Table XVII, HIV A11 motif peptides, binding value for purified HLA-A*1101, unit not given
  A*1101 (binding information): 0.0008
HLA-A*3101; HIV A03 supermotif peptides
  A*3101 binding information: 0.0880
HLA-A*6801; HIV A03 supermotif peptides
  A*6801 binding information: 0.0120

## NMVEQMIIEDI
HLA-A*0201; HIV A02 super motif peptides, Table VIII, unit not given
  A*0201 (binding information): 0.0001
HLA-A*2402; HIV A24 supermotif peptides, purified HLA molecule, no unit printed in Table X
  A*2401 (binding information): 0.0004

Source: patent publication US20050271676A1, “Inducing cellular immune responses to human immunodeficiency virus-1 using peptide and nucleic acid compositions” (Epimmune Inc., priority 1993, published 2005)
